Results reported in patent US20070248613A1.
Like-named read-outs stand apart in the source and are kept apart here.

How the values were obtained:
[1] = molecular target: D5 IgG
[2] = molecular target: D5 IgG; remark: listed apart in the source
[3] = molecular target: IZN17-L565M (HIV) (UniProt P04578); assay: SPR (Biacore)
[4] = molecular target: IZN17-Q567R (HIV) (UniProt P04578); assay: SPR (Biacore)
[5] = molecular target: IQN17-2Pro; assay: SPR (Biacore)
[6] = molecular target: IZN17-G572D (HIV) (UniProt P04578); assay: SPR (Biacore)
[7] = molecular target: IZN17 (HIV) (UniProt P04578); assay: SPR (Biacore)
[8] = molecular target: gp120 of the HIV-1 HXB2 envelope (HIV-1 strain HXB2) (UniProt P04578); assay: cell-based or functional assay

Chain of D5 IgG (VH, as listed by the source, chain 1 of 2): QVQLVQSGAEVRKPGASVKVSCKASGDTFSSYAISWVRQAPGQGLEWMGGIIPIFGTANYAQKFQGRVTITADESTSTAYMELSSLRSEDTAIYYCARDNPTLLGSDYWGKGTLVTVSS
Chain of D5 IgG (VL, as listed by the source, chain 2 of 2): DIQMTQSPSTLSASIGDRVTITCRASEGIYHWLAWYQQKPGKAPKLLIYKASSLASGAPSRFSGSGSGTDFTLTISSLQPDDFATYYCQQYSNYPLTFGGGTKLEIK
Chain of D5 IgG (antibody) (VH): as the sequence (VH, as listed by the source, chain 1 of 2) above
Chain of D5 IgG (antibody) (VL): as the sequence (VL, as listed by the source, chain 2 of 2) above

Substance: IZN17-L565M (from UniProt P04578 565-581) (peptide)
- IC50 (read off the curve) [1]: 10 nM

Substance: IZN17-Q567R (from UniProt P04578 565-581) (peptide)
- IC50 (read off the curve) [1]: 10 nM

Substance: IZN17 (from UniProt P04578 565-581) (peptide)
- IC50 (read off the curve) [1]: 7 nM
- IC50 (read off the curve) [2]: 2 nM

Substance: D5 IgG (antibody)
- Kd [3]: 0.3 nM
- koff [3]: 0.00089 s⁻¹
- kon [3]: 3e+06 M⁻¹ s⁻¹
- Kd [4]: 1.5 nM
- koff [4]: 0.0012 s⁻¹
- kon [4]: 800000 M⁻¹ s⁻¹
- Kd [5]: 240 nM
- koff [5]: 0.0022 s⁻¹
- kon [5]: 9000 M⁻¹ s⁻¹
- Kd [6]: 550 nM
- koff [6]: 0.003 s⁻¹
- kon [6]: 5500 M⁻¹ s⁻¹
- Kd [7]: 0.1 nM
- koff [7]: 0.00059 s⁻¹
- kon [7]: 6.1e+06 M⁻¹ s⁻¹

Substance: X5 scFv
- IC50, single cycle infectivity assay against HIV-HXB2 [8]: 30 nM

Substance: IZN17 V570A (from UniProt P04578 565-581) (peptide)
- IC50 (read off the curve) [2]: 7 nM
